Assay: soluble fraction after stress (log2 fold change); higher = more stays soluble; pooled small domains, quantitative proteomics
Conditions: stress: 75 degC
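Also: 20 min heating vs room temperature control held 20 min.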

Sequence	soluble fraction (log2)
HMEGLESVVPDLRGKSLKSAAIAAGLSGFALSPEGSGIVYKQSPAPGGRYLKGTLIAVWLRT	-1.95
HMEGMQATVTQITDEGITVRYVMNGQMVTRTLTSDEVAFVNRGQAVSDLAGAYRVGQTVWIY	-0.446
HMEGNAFASTGDPEADILDITAVHPMRRDAVEELLARSGAEWSLVEGMLRDGKITMAPWEGEEFFIRS	0.105
HMEGNWGLWAKVPNRFAALTTDKDSALRRFKSKEDGEAWMASHGLKPERFDVLEIPADYKPA	0.435
HMEGRHFRILYILLNNERVTAPELAEEFGVSVRTIYRDIDTMSAAGIPIYMQGGRKGGIYLLEGY	-1.11
HMEGSRASMDGQVPGKTSYLEWLARQPAQRQDQVLGAERGRLFRAGEIDLADMFTDKGEWISLERLKQLS	0.309
HMEGVSNLIVSVTRVKVTVDLSQAKVYLSIFPSEQAAFYLNALQQNRFQLKHDLSQLLKNQLRRIPTLQF	0.296
HMEHDYGLSGREREVLELMVQGLVKKEIADRLALSYHTVDNHLRSIYAKLQVHTRGGAVAKALSEHLVPP	-0.0631
HMEHGQWLSEAQGASLAADWLARRRGVLPLNARRHLSGLSDQIARQIEGGLSREAGLYTAHEMMESLDP	-0.427
HMEHNDPEVERTMFQGLEALKLQLFEKAFGHFSLLIKLAPDYAEAWNKRATVLYLMGRFKESESDVMRTLE	0.16
HMEHQLLHMEKTIFEEIADDYPQLNHTKIRNVLAAFLFTNDDVFKRIADLSGGERGRVSLAKLMLSDA	-0.159
HMEHTPYLTEREADVVRLLVSGLDTAQIAQRLGIKTATVTAHKKHIFLKIGVRNTTQLVAWALIR	-2.3
HMEIELHNLALNIKEFRKKNKLSQAELAEKLGVARTTIGYYERAEVEPNIYTLVQLSKLMNRSIDSLLGL	-2.64
HMEIFYGDDRVYTVSLHGQNNFPFRKKTSDFDYGFEDGTGDEEYLRVLDVTLSRLENEQFDLLFFQAGV	-0.068
HMEIFYSARAWAKLNDLVATRTYLQHLGAIAGRIGRSEGLSPDRIPDGRDGAVNGWPLWVWDRAYAEVS	-2.82
HMEIGLIRVDSRLIHGQVITKWLNYSKANVIVVVDDELSKDSFMSEIYKASAPNGIIVEILSIDDFMKNT	-0.0469
HMEIHIGSLIKEKMEERGLSVSDFAHALHYERTNIYKIFKRSSIDVDLLLRISEVLAYDFLREVYL	-2.4
HMEINKLIELIGGYKALSEVLNVSKSAISNYKKRGSLPSYAIPIIVKELKSKGISIDLSEFT	-0.837
HMEISAIIGNNLQQLRKEQGLSLDQLALKTGVSKAVLSQLENGKANPTINTIWKIATALHVTYSALLEPP	-1.15
HMEISEILNPPLVTAMAERYPEVDVSYYRDKYILYYESREHKITDHRRNFEKWLLVESQKEEN	-0.861
HMEISTENESFSNGLLEHPHYTRPPVWEDLKIPAVLMSGHHGKVAEWRKQQSEALTQERRPDLWEAFG	-0.14
HMEITSSNELKKMISNLINSENKNNPISDSNIVEKLKENDFLVARRTVAKYRKLLGIKNVNQRKE	-0.359
HMEIYELTDQEQRVLEFIGEGMTNREIAKNMFLAEKTVKNYVSSLLRKLGLERRTQAAAMAVRLSV	-0.119
HMEKAYVWTDTRTFDVQNYIGKKKSEVKNDQYGFEFLGEGDYVIDQLPRVGEQIEEGQKVKIMLGNQQEI	0.178
HMEKDKGTILKEARIKKGLTQEQLANNINYTRQYISKWENNISLPKDIQTLKKISNLLSIPLKELLPEDYL	-0.442
HMEKEFLFNGGKVVMNYEADRIQIMHDTKPGQDVITLMKKNGFKWSPFNKAWQRQITANAIYTTKHLINQ	-1.71
HMEKGIVSNKTDKGYGFIRSSTGESIFVHINNVGKEAYEQLAKGSRVLFDYEVTDRGKRATKVMLEPSES	-0.196
HMEKGLQYRRTDRAIMNAFIKLVNQGSFEKLTVQEILDEALVSRNTFYAHYRDIYDLMDALSN	-1.52
